How the values were obtained:
[1] = target: T1, human CCR8 (human, UniProt P51685 1-355); experiment: cell-based or functional assay
[2] = target: T1, human CCR8; experiment: cell-based or functional assay; remark: listed apart in the source
[3] = target: T1, human CCR8; experiment: FACS on human CCR8-expressing 293F cells
[4] = target: T1, human CCR8; experiment: FACS as in Example 2; T0 (the reference itself)
[5] = target: T1, human CCR8; experiment: FACS as in Example 2; antibody after 40° C. 1 W; ratio to T0
[6] = target: T1, human CCR8; experiment: FACS as in Example 2; antibody after 40° C. 2 W; ratio to T0
[7] = target: T1, human CCR8; experiment: FACS as in Example 2; antibody after 40° C. 4 W; ratio to T0
[8] = target: T1, human CCR8; experiment: FACS as in Example 2; antibody after Oxidation 24 h; ratio to T0
[9] = target: T1, human CCR8; experiment: FACS as in Example 2; antibody after Freeze/thaw 5FT; ratio to T0
[10] = target: T1, human CCR8; experiment: flow cytometry on 293F cells expressing hCCR8; column 'Inhibition EC50 (nM)'
Description: (§1) Human, rat, dog, mouse and cynomolgus CCR8 sequence were analysis. The result was shown that ECD2 regions of human, rat, dog, mouse and cynomolgus CCR8 were similar (Table 10). […] After reacting at 4° C. for 1 hour, it was reacted with Alexa Fluor 488 affinpure goat anti-human Ig(H+L) (Jackson, 109-545-003) and flow cytometry analysis was performed. The highest MFI of serially dilution is supposed as 100%, the inhibition percent was calculated according to the following formula.

[11] = target: T1, human CCR8; experiment: binding affinity EC50, comparison of Table 12 (FACS on CCR8-expressing cells)
[12] = target: T2, human CCR4 (human, UniProt P51679 1-360); experiment: flow cytometry on 293F cells expressing human CCR4; 14 dilutions by 3-fold from 25 µg/mL
T2 construct: whole, on cells; also called hCCR4
T2 sequence (looked up): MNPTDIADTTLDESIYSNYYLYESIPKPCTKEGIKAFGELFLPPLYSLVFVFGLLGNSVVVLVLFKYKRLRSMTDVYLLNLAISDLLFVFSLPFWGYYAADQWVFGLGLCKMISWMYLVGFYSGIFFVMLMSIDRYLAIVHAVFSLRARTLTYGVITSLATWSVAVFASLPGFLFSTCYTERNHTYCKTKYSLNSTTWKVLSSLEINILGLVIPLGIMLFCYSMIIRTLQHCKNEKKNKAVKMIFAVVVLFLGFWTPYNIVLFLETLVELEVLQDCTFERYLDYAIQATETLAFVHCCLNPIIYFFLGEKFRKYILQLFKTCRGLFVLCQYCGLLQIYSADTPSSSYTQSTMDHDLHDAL
Description: (§2) 3F11hz4 humanized antibody was tested for binding to CCR4 and CX3CR1 overexpressing cells by flow cytometry. […] After reacting at 4° C. for 1 hour, it was reacted with Alexa Fluor 488 affinipure goat anti-human Ig(H+L) (Jackson, 109-545-003) and flow cytometry analysis was performed.

[13] = target: T3, human CX3CR1 (human, UniProt P49238 1-355); experiment: flow cytometry on 293F cells expressing human CX3CR1; 14 dilutions by 3-fold from 25 µg/mL
T3 construct: whole, on cells; also called hCX3CR1
T3 sequence (looked up): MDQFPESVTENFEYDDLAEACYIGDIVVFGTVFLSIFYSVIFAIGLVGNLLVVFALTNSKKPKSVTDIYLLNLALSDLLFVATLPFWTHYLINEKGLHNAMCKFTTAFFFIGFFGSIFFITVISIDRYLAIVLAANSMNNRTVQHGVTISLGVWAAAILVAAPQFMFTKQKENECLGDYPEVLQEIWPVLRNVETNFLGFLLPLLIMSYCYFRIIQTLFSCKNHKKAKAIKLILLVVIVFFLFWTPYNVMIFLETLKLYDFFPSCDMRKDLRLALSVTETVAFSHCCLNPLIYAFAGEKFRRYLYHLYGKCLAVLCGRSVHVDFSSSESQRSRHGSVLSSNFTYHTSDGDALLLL
Description: as §2

[14] = target: T4, hCCR8(Y94A) (human, UniProt P51685 1-355); experiment: flow cytometry on 293F cells transiently expressing the mutant; column 'Inhibition EC50 (nM)'
T4 construct: whole, on cells
T4 sequence (P51685 whole entry Y94A): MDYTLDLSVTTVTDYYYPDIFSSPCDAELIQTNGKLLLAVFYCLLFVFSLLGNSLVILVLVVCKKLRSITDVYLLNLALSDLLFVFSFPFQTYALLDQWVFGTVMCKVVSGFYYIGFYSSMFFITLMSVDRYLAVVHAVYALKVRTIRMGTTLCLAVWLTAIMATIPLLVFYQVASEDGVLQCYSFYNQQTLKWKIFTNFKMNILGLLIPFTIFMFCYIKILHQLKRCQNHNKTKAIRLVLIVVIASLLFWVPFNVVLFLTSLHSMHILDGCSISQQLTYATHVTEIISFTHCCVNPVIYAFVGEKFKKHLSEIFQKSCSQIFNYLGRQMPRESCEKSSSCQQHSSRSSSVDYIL
Description: as §1

[15] = target: T5, hCCR8(L95A) (human, UniProt P51685 1-355); experiment: as above
T5 construct: whole, on cells
T5 sequence (P51685 whole entry L95A): as the sequence (P51685 whole entry Y94A) above, with A94Y, L95A counted along it
Description: as §1

[16] = target: T6, hCCR8(L96A) (human, UniProt P51685 1-355); experiment: as above
T6 construct: whole, on cells
T6 sequence (P51685 whole entry L96A): as the sequence (P51685 whole entry Y94A) above, with A94Y, L96A counted along it
Description: as §1

[17] = target: T7, hCCR8(D97A) (human, UniProt P51685 1-355); experiment: as above
T7 construct: whole, on cells; also called mutant of 97 aa in CCR8
T7 sequence (P51685 whole entry D97A): as the sequence (P51685 whole entry Y94A) above, with A94Y, D97A counted along it
Description: as §1

[18] = target: T8, hCCR8(Q98A) (human, UniProt P51685 1-355); experiment: as above
T8 construct: whole, on cells
T8 sequence (P51685 whole entry Q98A): as the sequence (P51685 whole entry Y94A) above, with A94Y, Q98A counted along it
Description: as §1

[19] = target: T9, hCCR8(V100A) (human, UniProt P51685 1-355); experiment: as above
T9 construct: whole, on cells
T9 sequence (P51685 whole entry V100A): as the sequence (P51685 whole entry Y94A) above, with A94Y, V100A counted along it
Description: as §1

[20] = target: T10, hCCR8(T103A) (human, UniProt P51685 1-355); experiment: as above
T10 construct: whole, on cells
T10 sequence (P51685 whole entry T103A): as the sequence (P51685 whole entry Y94A) above, with A94Y, T103A counted along it
Description: as §1

[21] = target: T11, hCCR8(V104A) (human, UniProt P51685 1-355); experiment: as above
T11 construct: whole, on cells
T11 sequence (P51685 whole entry V104A): as the sequence (P51685 whole entry Y94A) above, with A94Y, V104A counted along it
Description: as §1

[22] = target: T12, hCCR8(M105A) (human, UniProt P51685 1-355); experiment: as above
T12 construct: whole, on cells
T12 sequence (P51685 whole entry M105A): as the sequence (P51685 whole entry Y94A) above, with A94Y, M105A counted along it
Description: as §1

[23] = target: T13, hCCR8(K107A) (human, UniProt P51685 1-355); experiment: as above
T13 construct: whole, on cells
T13 sequence (P51685 whole entry K107A): as the sequence (P51685 whole entry Y94A) above, with A94Y, K107A counted along it
Description: as §1

T1 sequence (P51685 whole entry): as the sequence (P51685 whole entry Y94A) above, with A94Y counted along it

B1: 3F11hz4 (antibody, V domains shown)
VH: EVQLVESGGGLVQPGGSLKLSCAASGFSFNTYAMNWVRQASGKGLEWVGRIRSKSNYYATYYAASVKGRFTISRDDSKSTLYLQMNSLKTEDTAVYYCVRGRELGDYYAMDYWGQGTLVTVSS
VL: DIVMTQSPLSLPVTPGEPASISCRSSKSLLHSNGNTYLYWFLQKPGQSPQLLIYRMSNLASGVPDRFSGSGSGTDFTLKISRVEAEDVGVYYCMQHLEYPFTFGQGTKLEIK
notes: Humanized variant of 3F11; also called humanized 3F11hz4 antibody
B1 was tested, and the “Calcium mobilization IC50” value [1] was 4 nM, the “Calcium mobilization IC50 (nM) Ratio; 40° C. 1 W” value [2] was 1.31 and the “Calcium mobilization IC50 (nM) Ratio; 40° C. 2 W” value [2] was 1.03. For the same binder, the “Calcium mobilization IC50 (nM) Ratio; 40° C. 4 W” value [2] was 2.22, the “Calcium mobilization IC50 (nM) Ratio; Freeze/thaw 5FT” value [2] was 1.5 and the “Calcium mobilization IC50 (nM) Ratio; Oxidation 24 h” value [2] was 1.63. The “Calcium mobilization IC50 (nM) Ratio; T0” value [2] was 1, the EC50 [3] was 0.194 nM and the “Affinity EC50 (nM) Ratio” value [4] was 1. The “Affinity EC50 (nM) Ratio” value [5] was 1.34, the “Affinity EC50 (nM) Ratio” value [6] was 1.27 and the “Affinity EC50 (nM) Ratio” value [7] was 1.35. The “Affinity EC50 (nM) Ratio” value [8] was 1.36, the “Affinity EC50 (nM) Ratio” value [9] was 1.22 and the EC50 [10] was 0.234 nM. The EC50 [11] was 0.19 nM, the binding result [12] was “no binding (tested: 25 µg/mL)” and the binding result [13] was “no binding (tested: 25 µg/mL)”. It also gave an EC50 [14] of 0.306 nM, an EC50 [15] of 0.459 nM and an EC50 [16] of 0.28 nM. The EC50 [17] was 24 nM, the EC50 [18] was 0.194 nM and the EC50 [19] was 0.237 nM. For the same binder, the EC50 [20] was 0.311 nM, the EC50 [21] was 0.341 nM and the EC50 [22] was 0.334 nM. The EC50 [23] was 0.22 nM.

From patent US20240352134A1 (NANJING IMMUNOPHAGE BIOTECH, published 2024)
